This is an account of results in article PMC6238398, “The crystal structure of Staufen1 in complex with a physiological RNA sheds light on substrate selectivity” (Life Science Alliance, 2018).

For series [1], the target named is T1, hStau1 FL (Homo sapiens, UniProt O95793 1-577). Description: fluorescence anisotropy; FA: 10 nM 5'-FAM RNA, 20 mM Hepes pH 7.5, 150 mM KCl, RT (19-21 C); EMSA: 1 uM RNA, same buffer, 45 min on ice. The conditions noted are these: protein: recombinant, tags: tag removed or His/GST not specified, chain copies: 2. For orientation: Fluorescence polarisation rises when a labelled molecule tumbles more slowly, as on binding a larger partner.

The target of series [2] is hStau1 dsRBD3-4 interface mutant (Homo sapiens, UniProt O95793 182-360, N197A;R342A). Kind of series: fluorescence anisotropy; no effect on affinity vs wt; FA: 10 nM 5'-FAM RNA, 20 mM Hepes pH 7.5, 150 mM KCl, RT (19-21 C); EMSA: 1 uM RNA, same buffer, 45 min on ice. The following applies: protein: recombinant; label: 5'-6-FAM on sense strand; blunt, two G-U wobbles.
Chain of hStau1 dsRBD3-4 interface mutant (O95793 182-360 N197A/R342A): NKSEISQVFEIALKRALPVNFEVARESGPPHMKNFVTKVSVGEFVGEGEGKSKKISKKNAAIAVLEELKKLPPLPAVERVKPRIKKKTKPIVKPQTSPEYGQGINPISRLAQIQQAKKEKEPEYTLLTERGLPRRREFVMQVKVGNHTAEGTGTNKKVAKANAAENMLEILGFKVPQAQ
For series [3], the target named is hStau1 dsRBD3-4 short linker (Homo sapiens, UniProt O95793 182-253+=GSSGSGSS+284-360, internal_change). Kind of series: fluorescence anisotropy; FA: 10 nM 5'-FAM RNA, 20 mM Hepes pH 7.5, 150 mM KCl, RT (19-21 C); EMSA: 1 uM RNA, same buffer, 45 min on ice. The conditions noted are these: protein: recombinant; label: 5'-6-FAM on sense strand; blunt, two G-U wobbles.

Series [4] has as its target hStau1 dsRBD3-4 linker charge mutant (Homo sapiens, UniProt O95793 182-360, K266A;K267E;K268A;K270A). The series is described as above. The following applies: protein: recombinant; label: 5'-6-FAM on sense strand; blunt, two G-U wobbles.
Series [5] deals with hStau1 base-contact mutant (Homo sapiens, UniProt O95793 182-360, S187A;P211A;Q293A). Described as above. The conditions noted are these: protein: recombinant, blunt.
Chain of hStau1 base-contact mutant (O95793 182-360 S187A/P211A/Q293A): as the sequence (O95793 182-360 N197A/R342A) above, with S6A, A16N, P30A, Q112A, A161R counted along it
Series [6] deals with hStau1 deltaC (SSM and dsRBD5 removed) (Homo sapiens, UniProt O95793 1-360). The series is described as above. The following applies: protein: recombinant; label: 5'-6-FAM on sense strand; blunt, two G-U wobbles.
In series [7] the target is GST-hStau1 dsRBD3-4 (Homo sapiens, UniProt O95793 182-360). Described as above. The conditions noted are these: protein: recombinant; tags: N-terminal GST; label: 5'-6-FAM on sense strand; blunt, two G-U wobbles.
Series [8] deals with hStau1 dsRBD3-4 (Homo sapiens, UniProt O95793 182-360). The description is as above. The conditions noted are these: protein: recombinant; tags: untagged; chain copies: 2; label: 5'-6-FAM on sense strand; blunt, two G-U wobbles.
Series [9] deals with hStau1 deltaN (dsRBD2 removed) (Homo sapiens, UniProt O95793 182-577). Described as above. The conditions noted are these: protein: recombinant; label: 5'-6-FAM on sense strand; blunt, two G-U wobbles.
The target of series [10] is hStau1 dsRBD4 backbone mutant (Homo sapiens, UniProt O95793 182-360, R315A;R317A;K337E;K338A;K341A). The description is as above. The conditions noted are these: protein: recombinant; label: 5'-6-FAM on sense strand; blunt, two G-U wobbles.
The target of series [11] is hStau1 dsRBD3 backbone mutant (Homo sapiens, UniProt O95793 182-360, H212A;K214A;K234E;K235A;K238A). The description is as above. The conditions noted are these: protein: recombinant; label: 5'-6-FAM on sense strand; blunt, two G-U wobbles.
Series [12] deals with GST-hStau1 dsRBD4 (Homo sapiens, UniProt O95793 284-358). Described as above. The conditions noted are these: protein: recombinant; tags: N-terminal GST; label: 5'-6-FAM on sense strand; blunt, two G-U wobbles.
For series [13], the target named is GST-hStau1 dsRBD3 (Homo sapiens, UniProt O95793 182-255). Described as above. The following applies: protein: recombinant; tags: N-terminal GST; label: 5'-6-FAM on sense strand; blunt, two G-U wobbles.
The target of series [14] is T1, hStau1 FL. The series is described as above. The conditions noted are these: protein: recombinant; tags: tag removed or His/GST not specified; chain copies: 2; label: 5'-6-FAM; blunt.
The target of series [15] is T2, dStau S581A Q718A (Drosophila melanogaster, UniProt P25159 570-786, S581A;Q718A).
T2 sequence: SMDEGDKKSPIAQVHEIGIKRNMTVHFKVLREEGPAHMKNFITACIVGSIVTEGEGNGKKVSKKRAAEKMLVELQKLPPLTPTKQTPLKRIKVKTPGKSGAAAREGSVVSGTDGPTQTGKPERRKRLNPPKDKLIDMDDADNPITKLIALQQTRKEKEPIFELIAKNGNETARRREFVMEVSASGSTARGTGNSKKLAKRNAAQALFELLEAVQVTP
The description is as above. The conditions noted are these: protein: recombinant; label: 5'-6-FAM; hairpin.

Series [16] has as its target T3, dStau dsRBD3 backbone mutant (Drosophila melanogaster, UniProt P25159 570-786, H606A;K608A;K628E;K629A).
T3 sequence: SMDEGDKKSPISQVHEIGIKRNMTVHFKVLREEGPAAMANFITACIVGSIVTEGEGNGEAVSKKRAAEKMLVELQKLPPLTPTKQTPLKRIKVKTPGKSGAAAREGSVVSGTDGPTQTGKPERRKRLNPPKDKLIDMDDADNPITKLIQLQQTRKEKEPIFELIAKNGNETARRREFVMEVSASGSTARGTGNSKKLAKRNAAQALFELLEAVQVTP
The series is described as above. The following applies: protein: recombinant; label: 5'-6-FAM; hairpin.

Series [17] deals with T4, dStau dsRBD4 backbone mutant (Drosophila melanogaster, UniProt P25159 570-786, R742A;R744A;K764E;K765A;K768A).
T4 sequence: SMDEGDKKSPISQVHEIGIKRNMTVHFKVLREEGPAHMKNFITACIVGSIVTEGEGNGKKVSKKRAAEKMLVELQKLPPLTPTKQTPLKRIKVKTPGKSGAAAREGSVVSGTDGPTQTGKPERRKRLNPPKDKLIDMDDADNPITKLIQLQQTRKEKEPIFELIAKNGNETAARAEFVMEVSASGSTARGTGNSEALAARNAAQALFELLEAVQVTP
Described as above. The conditions noted are these: protein: recombinant; label: 5'-6-FAM; hairpin.

Series [18] deals with the molecule itself. Description: SEC + SEC-MALS; apo proteins on Superdex 200 Increase 10/300 GL with MALLS detector; 20 mM Tris-HCl pH 7.5, 150 mM KCl, RT; 200 ug FL, 350 ug hStau1 182-577 injected.

Broadly, the Kd is the equilibrium constant for the complex coming apart. As for UGAGUGCCAGAAGCUGCCUC (ssRNA) [ssARF1 (sense strand)], the Kd in series [1] (label: 5'-6-FAM, single strand) amounted to 96 ± 27 nM.

B1: ARF1 SBS (dsRNA)
RNA 1: UGAGUGCCAGAAGCUGCCUC
RNA 2: GAGGCAGUUUCUGGUACUCA
As to B1, in series [2], the binding result is on record as “binds”. The binding signal in [3] was about 8 fold reduction vs wt; in series [4], about 3 fold reduction vs wt; in series [5] (label: 5'-6-FAM on sense strand, two G-U wobbles) it was about 3 fold reduction vs wt; in [10], about 4.5 fold reduction vs wt; in series [11], about 8 fold reduction vs wt; in series [12] it was ~1000 fold reduction vs tandem dsRBD3-4. The binding signal in series [13] is ~10 fold reduction vs tandem dsRBD3-4. The Kd in series [6] was 10 ± 2 nM; in series [7], 9 ± 2 nM; in series [1] (label: 5'-6-FAM on sense strand, blunt, two G-U wobbles), 6 ± 1 nM; in series [8], 14 ± 4 nM; in series [9], 9 ± 3 nM.

B2: dsAU (dsRNA)
RNA 1: UAUUAUAUAAAUUAUAAAAU
RNA 2: AUUUUAUAAUUUAUAUAAUA
For the molecule B2, the binding signal in [5] (label: 5'-6-FAM) was ~1.5 fold reduction vs wt on dsAU; in series [14] it was ~4 fold reduction vs ARF1 SBS.

B3: bcd III (structured_RNA)
RNA: CGCUAUUCGCCUUAGAUGUAUCUGGGUGGCUGCUCCACUAAAGCCCGGGAAUAUGCAACCAGUUACAUUUGAGGCCAUUUGGGCUUAAGCG
As to B3, the values for the binding signal in series [15], in series [16] and in [17] were about 3.5 fold reduction vs wt, ~10 fold reduction vs wt (almost) and under 3 fold reduction vs wt, respectively.

B4: human Staufen1 full-length (natural protein, UniProt O95793 1-577, looked up)
chain: MSQVQVQVQNPSAALSGSQILNKNQSLLSQPLMSIPSTTSSLPSENAGRPIQNSALPSASITSTSAAAESITPTVELNALCMKLGKKPMYKPVDPYSRMQSTYNYNMRGGAYPPRYFYPFPVPPLLYQVELSVGGQQFNGKGKTRQAAKHDAAAKALRILQNEPLPERLEVNGRESEEENLNKSEISQVFEIALKRNLPVNFEVARESGPPHMKNFVTKVSVGEFVGEGEGKSKKISKKNAAIAVLEELKKLPPLPAVERVKPRIKKKTKPIVKPQTSPEYGQGINPISRLAQIQQAKKEKEPEYTLLTERGLPRRREFVMQVKVGNHTAEGTGTNKKVAKRNAAENMLEILGFKVPQAQPTKPALKSEEKTPIKKPGDGRKVTFFEPGSGDENGTSNKEDEFRMPYLSHQQLPAGILPMVPEVAQAVGVSQGHHTKDFTRAAPNPAKATVTAMIARELLYGGTSPTAETILKNNISSGHVPHGPLTRPSEQLDYLSRVQGFQVEYKDFPKNNKNEFVSLINCSSQPPLISHGIGKDVESCHDMAALNILKLLSELDQQSTEMPRTGNGPMSVCGRC
notes: human Staufen1 (hStau1), GenBank AAD17531.1, codon optimized; full-length protein; the truncation 182-577 implies a length of 577 aa; Constructs carried either an N-terminal GST tag or a His tag; The His tag was removed by TEV; the GST tag was either kept (elution with glutathione) or cleaved by TEV; also called hStau1 FL; hStau1
As a reminder, the stoichiometry N is the number of molecules, sites or subunits per partner or assembly. For the molecule B4, the “stoichiometry N” value in series [18] worked out at 2.

B5: hStau1 aa 182-577 (N-terminal deletion removing dsRBD2) (domain or fragment, human, UniProt O95793 182-577, looked up)
chain: NKSEISQVFEIALKRNLPVNFEVARESGPPHMKNFVTKVSVGEFVGEGEGKSKKISKKNAAIAVLEELKKLPPLPAVERVKPRIKKKTKPIVKPQTSPEYGQGINPISRLAQIQQAKKEKEPEYTLLTERGLPRRREFVMQVKVGNHTAEGTGTNKKVAKRNAAENMLEILGFKVPQAQPTKPALKSEEKTPIKKPGDGRKVTFFEPGSGDENGTSNKEDEFRMPYLSHQQLPAGILPMVPEVAQAVGVSQGHHTKDFTRAAPNPAKATVTAMIARELLYGGTSPTAETILKNNISSGHVPHGPLTRPSEQLDYLSRVQGFQVEYKDFPKNNKNEFVSLINCSSQPPLISHGIGKDVESCHDMAALNILKLLSELDQQSTEMPRTGNGPMSVCGRC
notes: human Staufen1 (hStau1), GenBank AAD17531.1, aa 182-577 (dsRBD3, dsRBD4, TBD, SSM, dsRBD5); GST was kept or cleaved; also called hStau1^182-577
As to B5, the “stoichiometry N” value in series [18] came out at 2.
